Reference: patent US20250313644A1 (FUTUREGEN BIOPHARMACEUTICAL BEIJING, published 2025)

T1: LT-α (UniProt P01374 35-205)
T1 sequence (looked up): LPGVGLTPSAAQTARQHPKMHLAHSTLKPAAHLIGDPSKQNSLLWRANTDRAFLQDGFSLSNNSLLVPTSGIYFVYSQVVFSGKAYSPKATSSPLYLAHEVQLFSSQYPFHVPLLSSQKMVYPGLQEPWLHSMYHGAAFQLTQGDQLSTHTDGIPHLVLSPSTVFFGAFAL

T2: HuTL1A mutant G124R (mutant number 4059) (human, UniProt O95150 57-251, limits assumed)
T2 construct: whole entry named
T2 chain: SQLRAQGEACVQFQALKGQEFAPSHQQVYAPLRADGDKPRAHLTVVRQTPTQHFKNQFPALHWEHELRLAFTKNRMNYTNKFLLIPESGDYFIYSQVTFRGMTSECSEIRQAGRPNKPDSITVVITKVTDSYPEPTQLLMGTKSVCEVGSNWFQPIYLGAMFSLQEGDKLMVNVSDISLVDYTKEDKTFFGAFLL

T3: HuTL1A mutant R103A (mutant number 4057) (human, UniProt O95150 57-251, limits assumed)
T3 construct: whole entry named
T3 chain: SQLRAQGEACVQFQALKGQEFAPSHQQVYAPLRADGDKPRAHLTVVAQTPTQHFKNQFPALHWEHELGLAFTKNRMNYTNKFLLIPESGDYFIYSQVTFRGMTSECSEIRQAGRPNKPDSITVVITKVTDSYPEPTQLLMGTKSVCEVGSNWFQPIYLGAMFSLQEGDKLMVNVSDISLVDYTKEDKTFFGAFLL

T4: human TL1A (HuTL1A) (human, UniProt O95150 57-251, limits assumed, biotin-labelled in some assays (site not stated))
T4 sequence: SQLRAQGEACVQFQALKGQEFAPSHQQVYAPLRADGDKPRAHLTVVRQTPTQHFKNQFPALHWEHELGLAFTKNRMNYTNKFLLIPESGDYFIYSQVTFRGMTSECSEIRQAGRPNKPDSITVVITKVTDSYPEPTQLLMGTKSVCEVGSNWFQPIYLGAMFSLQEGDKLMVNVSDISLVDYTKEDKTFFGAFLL

T5: FASL (UniProt P48023 134-281, limits assumed)
T5 sequence (looked up): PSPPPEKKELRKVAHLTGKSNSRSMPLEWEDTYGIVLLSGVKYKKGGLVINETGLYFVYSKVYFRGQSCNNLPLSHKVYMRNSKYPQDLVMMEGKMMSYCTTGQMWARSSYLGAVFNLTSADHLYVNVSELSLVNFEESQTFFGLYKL

B1: M701-3966 (antibody, human IgG1, kappa, L234A L235A, V domains shown)
VH: ELQLQESGPGLVKPSETLSLTCAVSGVSFSDYHWAWIRQPPGKGLEWIGDINHRGHTNYNPSLKSRVTVSIDTSKNQFSLKLSSVTAADTAVYFCARDFPNFIFDYWGQGTLVTVSS
VL: DIQLTQSPGTLSLSPGERATLSCRASQSVSSYLAWYQQKPGQAPRLLIYGASKRATGIPDRFSGSGSGTDFTLTISRLEPEDFAVYYCQQYGDSPLTFGQGTKVEIKR
notes: Fc-engineered IgG1
B2: M701-4007 (antibody, human IgG1, kappa, L234A L235A, V domains shown)
VH: ELQLQESGPGLVKPSETLSLTCAVSGVSFSDYHWAWIRQPPGKGLEWIGDINHRGHTNYNPSLKSRVTVSIDTSKNQFSLKLSSVTAADTAVYFCARDFPNFIFDFWGQGTLVTVSS
VL: DIQLTQSPGTLSLSPGERATLSCRASQSVSTYLAWYQQKPGQAPRLLIYGASKRATGIPDRFSGSGSGTDFTLTISRLEPEDFAVYYCQQYGDSPLTFGQGTKVEIKR
notes: Fc-engineered IgG1

Assays:
[1] = biological target: T1, LT-α; assay: ELISA, coated LT-α, Ab 100 nM
Method: (§1) In this experiment, ELISA was used to assess the binding ability of monoclonal antibodies to TL1A homologous molecules. Representative members of the TNF ligand superfamily, TNFα, LT-α, LIGHT and FASL, were selected for binding testing. 1 μg/mL of TNFα, LT-α, LIGHT or FASL was coated in a microplate with a carbonate buffer solution at pH=9.6, 100 μL per well, and the microplate was incubated at 4° C. overnight. The microplate was then washed 5 times with PBST, blocked with 300 μL/well of PBS containing 1% BSA, and was incubated at room temperature for 1 hour. After washing 5 times with PBST, about 100 μL each of the M701 monoclonal antibodies and the control antibodies were added to each well, and were incubated at room temperature for 1 hour. After washing 5 times with PBST, 100 μL of HRP-anti-human Fc (Sino Biological) was added to each well, and was incubated at room temperature for 1 hour. After washing 5 times with PBST, 100 μL of colorimetric substrate TMB was added to each well, and color was developed at room temperature for 10 minutes, followed by addition of 1M sulfuric acid to terminate the reaction. OD450 nm was recorded on a microplate reader.

[2] = biological target: T6, TNFα (UniProt P01375 77-233); assay: ELISA, coated TNF-α, Ab 0.391 nM
Method: as §1

[3] = biological target: T2, HuTL1A mutant G124R (mutant number 4059); assay: ELISA on antigen mutant
[4] = biological target: T3, HuTL1A mutant R103A (mutant number 4057); assay: ELISA on antigen mutant
[5] = biological target: T7, LIGHT (UniProt O43557 74-240, limits assumed); assay: ELISA, coated LIGHT, Ab 0.391 nM
Method: as §1

[6] = biological target: T6, TNFα; assay: ELISA, coated TNF-α, Ab 1.563 nM
Method: as §1

[7] = biological target: T4, human TL1A (HuTL1A); assay: cell-based or functional assay
[8] = biological target: T5, FASL; assay: ELISA, coated FASL
Method: as §1

[9] = biological target: T7, LIGHT; assay: ELISA, coated LIGHT, Ab 1.563 nM
Method: as §1

[10] = biological target: T4, human TL1A (HuTL1A); assay: cell-based or functional assay; remark: listed apart in the source
[11] = biological target: T1, LT-α; assay: ELISA, coated LT-α, Ab 1.563 nM
Method: as §1

[12] = biological target: T5, FASL; assay: ELISA, coated FASL, Ab 25 nM
Method: as §1

[13] = biological target: T1, LT-α; assay: ELISA, coated LT-α
Method: as §1

[14] = biological target: T1, LT-α; assay: ELISA, coated LT-α, Ab 0.000 nM (blank)
Method: as §1

[15] = biological target: T5, FASL; assay: ELISA, coated FASL, Ab 0.391 nM
Method: as §1

[16] = biological target: T6, TNFα; assay: ELISA, coated TNF-α, Ab 0.000 nM (blank)
Method: as §1

[17] = biological target: T5, FASL; assay: ELISA, coated FASL, Ab 1.563 nM
Method: as §1

[18] = biological target: T1, LT-α; assay: ELISA, coated LT-α, Ab 25 nM
Method: as §1

[19] = biological target: T7, LIGHT; assay: ELISA, coated LIGHT, Ab 25 nM
Method: as §1

[20] = biological target: T5, FASL; assay: ELISA, coated FASL, Ab 100 nM
Method: as §1

T7 sequence (O43557 74-240 limits assumed): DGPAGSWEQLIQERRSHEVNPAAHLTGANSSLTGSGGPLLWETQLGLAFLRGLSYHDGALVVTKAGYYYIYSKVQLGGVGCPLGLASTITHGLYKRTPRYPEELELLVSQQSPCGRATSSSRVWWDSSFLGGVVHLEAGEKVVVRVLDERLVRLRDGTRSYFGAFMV
T6 sequence (P01375 77-233 limits assumed): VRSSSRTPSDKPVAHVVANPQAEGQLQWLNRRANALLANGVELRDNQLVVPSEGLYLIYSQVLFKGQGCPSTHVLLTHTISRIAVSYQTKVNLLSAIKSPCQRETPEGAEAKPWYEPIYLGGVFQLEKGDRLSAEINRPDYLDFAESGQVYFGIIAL

Binder	OD450 nm [1]	OD450 nm [2]	binding result [3]	binding result [4]	OD450 nm [5]	OD450 nm [6]	IC50 (read off the curve); IFN-γ of human T cells with IL-12, IL-18 and exogenous human TL1A [7] [nM]	binding result [8]	OD450 nm [9]	IC50 (read off the curve); SEAP reporter in HEK293T/DR3-NFκB cells with soluble TL1A, OD655 [10] [nM]	OD450 nm [11]	OD450 nm [12]	binding result [13]	OD450 nm [14]	OD450 nm [15]	OD450 nm [16]	OD450 nm [17]	OD450 nm [18]	OD450 nm [19]	OD450 nm [20]
B1	0.0709	0.0517	no binding	no binding	0.0558	0.0528	~0.3	no binding (tested: 100 nM)	0.0573	~1	0.0651	0.0662	no binding (tested: 100 nM)	0.0704	0.0504	0.0706	0.0522	0.0639	0.0674	0.0914
B2	0.0706	0.0557	no binding	no binding	0.0534	0.0588	~0.2	no binding (tested: 100 nM)	0.0568	~1	0.0625	0.0634	no binding (tested: 100 nM)	0.0662	0.0504	0.0762	0.06	0.0628	0.063	0.089
